Data set [1] has as its system HeLa Kyoto. Put plainly: solubility in G1/S (NP-40 vs SDS abundance) (log2 ratio); higher = more soluble. To be noted: cell cycle stage: G1/S.
Data set [2] relates to HeLa Kyoto. Briefly: melting temperature (median over replicates), in situ; higher = more thermally stable.
For data set [3], the system named is HeLa Kyoto. Put plainly: solubility change mitosis vs G1/S (difference of NP-40 vs SDS log2 ratios) (log2 ratio difference); higher = more soluble in mitosis.
The test system of data set [4] is HeLa Kyoto. Briefly: thermal stability score vs G1/S (z-score of summed log2 fold changes over temperatures); higher = more thermally stable than in G1/S.
Where [5] appears, read: cell cycle stage: early G1 (4.5 h after nocodazole release).
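Throughout, for melting temperature (median over replicates), in situ: HeLa Kyoto cells synchronized by double thymidine or nocodazole block, proteins quantified by TMT10plex mass spectrometry, three independent biological replicates.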
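Throughout, for solubility change mitosis vs G1/S (difference of NP-40 vs SDS log2 ratios): synchronized HeLa Kyoto cells (double thymidine block for G1/S, nocodazole release for mitosis), protein amounts in NP-40 versus SDS lysates quantified by mass spectrometry, three biological replicates.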
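Throughout, for solubility in G1/S (NP-40 vs SDS abundance): HeLa Kyoto cells arrested at G1/S by double thymidine block, proteins quantified by TMT10plex mass spectrometry in mild NP-40 versus SDS extracts, three biological replicates.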
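Throughout, for thermal stability score vs G1/S (z-score of summed log2 fold changes over temperatures): synchronized HeLa Kyoto cells, proteins quantified by TMT10plex mass spectrometry, three biological replicates, mitosis taken 0.5 h after nocodazole release, G1/S directly after double thymidine block.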

Take “MDYRRLLMSRVVPGQFDDADSSDSENRDLKTVKEKDDILFEDLQDNVNENGEGEIEDEEEEGYDDDDDDWDWDEGVGKLAKGYVWNGGSNPQANRQTSDSSSAKMSTPADKVLRKFENKINLDKLNVTDSVINKVTEKSRQKEADMYRIKDKADRATVEQVLDPRTRMILFKMLTRGIITEINGCISTGKEANVYHASTANGESRAIKIYKTSILVFKDRDKYVSGEFRFRHGYCKGNPRKMVKTWAEKEMRNLIRLNTAEIPCPEPIMLRSHVLVMSFIGKDDMPAPLLKNVQLSESKARELYLQVIQYMRRMYQDARLVHADLSEFNMLYHGGGVYIIDVSQSVEHDHPHALEFLRKDCANVNDFFMRHSVAVMTVRELFEFVTDPSITHENMDAYLSKAMEIASQRTKEERSSQDHVDEEVFKRAYIPRTLNEVKNYERDMDIIMKLKEEDMAMNAQQDNILYQTVTGLKKDLSGVQKVPALLENQVEERTCSDSEDIGSSECSDTDSEEQGDHARPKKHTTDPDIDKKERKKMVKEAQREKRKNKIPKHVKKRKEKTAKTKKGK [RIOK1]”: in data set [1], the “solubility in G1/S (log2)” value is -0.18. For the same sequence, the melting temperature in data set [2] (cell cycle stage: G1/S) is 52.3 °C; in data set [2] (cell cycle stage: mitosis), 54.8 °C. Moreover, the “solubility change mitosis (log2)” value in data set [3] came out at 0.0777. Moreover, the thermal stability score in data set [4] (setting [5]) turned out to be 1.87; in data set [4] (cell cycle stage: mitosis), 1.28.
On to “MEADIITNLRCRLKEAEEERLKAAQYGLQLVESQNELQNQLDKCRNEMMTMTESYEQEKYTLQREVELKSRMLESLSCECEAIKQQQKMHLEKLEEQLSRSHGQEVNELKTKIEKLKVELDEARLSEKQLKHQVDHQKELLSCKSEELRVMSERVQESMSSEMLALQIELTEMESMKTTLKEEVNELQYRQEQLELLITNLMRQVDRLKEEKEEREKEAVSYYNALEKARVANQDLQVQLDQALQQALDPNSKGNSLFAEVEDRRAAMERQLISMKVKYQSLKKQNVFNREQMQRMKLQIATLLQMKGSQTEFEQQERLLAMLEQKNGEIKHLLGEIRNLEKFKNLYDSMESKPSVDSGTLEDNTYYTDLLQMKLDNLNKEIESTKGELSIQRMKALFESQRALDIERKLFANERCLQLSESENMKLRAKLDELKLKYEPEETVEVPVLKKRREVLPVDITTAKDACVNNSALGGEVYRLPPQKEETQSCPNSLEDNNLQLEKSVSIYTPVVSLSPHKNLPVDMQLKKEKKCVKLIGVPADAEALSERSGNTPNSPRLAAESKLQTEVKEGKETSSKLEKETCKKLHPILYVSSKSTPETQCPQQ [SPDL1]”, for which the “solubility in G1/S (log2)” value in data set [1] stood at 0.268. The values for the melting temperature in data set [2] (cell cycle stage: G1/S) and in data set [2] (cell cycle stage: mitosis) were 47.2 °C and 50.1 °C, respectively. Further, the “solubility change mitosis (log2)” value in data set [3] was 0.278. The thermal stability score in data set [4] (setting [5]) was 0.59; in data set [4] (cell cycle stage: mitosis) it was 0.359.
Turning to “MEAEGSSAPARAGSGEGSDSAGGATLKAPKHLWRHEQHHQYPLRQPQFRLLHPHHHLPPPPPPSPQPQPQCPLQPPPPPPLPPPPPPPGAARGRYASSGATGRVRHRGYSDTERYLYCRAMDRTSYAVETGHRPGLKKSRMSWPSSFQGLRRFDVDNGTSAGRSPLDPMTSPGSGLILQANFVHSQRRESFLYRSDSDYDLSPKSMSRNSSIASDIHGDDLIVTPFAQVLASLRTVRNNFAALTNLQDRAPSKRSPMCNQPSINKATITEEAYQKLASETLEELDWCLDQLETLQTRHSVSEMASNKFKRMLNRELTHLSEMSRSGNQVSEFISNTFLDKQHEVEIPSPTQKEKEKKKRPMSQISGVKKLMHSSSLTNSSIPRFGVKTEQEDVLAKELEDVNKWGLHVFRIAELSGNRPLTVIMHTIFQERDLLKTFKIPVDTLITYLMTLEDHYHADVAYHNNIHAADVVQSTHVLLSTPALEAVFTDLEILAAIFASAIHDVDHPGVSNQFLINTNSELALMYNDSSVLENHHLAVGFKLLQEENCDIFQNLTKKQRQSLRKMVIDIVLATDMSKHMNLLADLKTMVETKKVTSSGVLLLDNYSDRIQVLQNMVHCADLSNPTKPLQLYRQWTDRIMEEFFRQGDRERERGMEISPMCDKHNASVEKSQVGFIDYIVHPLWETWADLVHPDAQDILDTLEDNREWYQSTIPQSPSPAPDDPEEGRQGQTEKFQFELTLEEDGESDTEKDSGSQVEEDTSCSDSKTLCTQDSESTEIPLDEQVEEEAVGEEEESQPEACVIDDRSPDT [PDE4D]”, the “solubility in G1/S (log2)” value in data set [1] was found to be 0.0456. Besides, the results for the melting temperature in data set [2] (cell cycle stage: G1/S) and in data set [2] (cell cycle stage: mitosis) were 53.2 °C and 51.1 °C, respectively. The “solubility change mitosis (log2)” value in data set [3] was -0.23. Moreover, the thermal stability score is -2.8 in data set [4] (setting [5]) and -4.75 in data set [4] (cell cycle stage: mitosis).
Turning to “MEANGLGPQGFPELKNDTFLRAAWGEETDYTPVWCMRQAGRYLPEFRETRAAQDFFSTCRSPEACCELTLQPLRRFPLDAAIIFSDILVVPQALGMEVTMVPGKGPSFPEPLREEQDLERLRDPEVVASELGYVFQAITLTRQRLAGRVPLIGFAGAPWTLMTYMVEGGGSSTMAQAKRWLYQRPQASHQLLRILTDALVPYLVGQVVAGAQALQLFESHAGHLGPQLFNKFALPYIRDVAKQVKARLREAGLAPVPMIIFAKDGHFALEELAQAGYEVVGLDWTVAPKKARECVGKTVTLQGNLDPCALYASEEEIGQLVKQMLDDFGPHRYIANLGHGLYPDMDPEHVGAFVDAVHKHSRLLRQN [UROD]”, the “solubility in G1/S (log2)” value in data set [1] worked out at 0.254. Besides, the values for the melting temperature in data set [2] (cell cycle stage: G1/S) and in data set [2] (cell cycle stage: mitosis) were 56.5 °C and 56.7 °C, respectively. In data set [3], the “solubility change mitosis (log2)” value is -0.193. Further, the thermal stability score is -0.168 in data set [4] (setting [5]) and -0.608 in data set [4] (cell cycle stage: mitosis).
As for “MEAPAAGLFLLLLLGTWAPAPGSASSEAPPLINEDVKRTVDLSSHLAKVTAEVVLAHLGGGSTSRATSFLLALEPELEARLAHLGVQVKGEDEEENNLEVRETKIKGKSGRFFTVKLPVALDPGAKISVIVETVYTHVLHPYPTQITQSEKQFVVFEGNHYFYSPYPTKTQTMRVKLASRNVESYTKLGNPTRSEDLLDYGPFRDVPAYSQDTFKVHYENNSPFLTITSMTRVIEVSHWGNIAVEENVDLKHTGAVLKGPFSRYDYQRQPDSGISSIRSFKTILPAAAQDVYYRDEIGNVSTSHLLILDDSVEMEIRPRFPLFGGWKTHYIVGYNLPSYEYLYNLGDQYALKMRFVDHVFDEQVIDSLTVKIILPEGAKNIEIDSPYEISRAPDELHYTYLDTFGRPVIVAYKKNLVEQHIQDIVVHYTFNKVLMLQEPLLVVAAFYILFFTVIIYVRLDFSITKDPAAEARMKVACITEQVLTLVNKRIGLYRHFDETVNRYKQSRDISTLNSGKKSLETEHKALTSEIALLQSRLKTEGSDLCDRVSEMQKLDAQVKELVLKSAVEAERLVAGKLKKDTYIENEKLISGKRQELVTKIDHILDAL [RPN1]”, the “solubility in G1/S (log2)” value in data set [1] worked out at 0.0559. Besides, the figures for the melting temperature in data set [2] (cell cycle stage: G1/S) and in data set [2] (cell cycle stage: mitosis) were 53.2 °C and 53.6 °C, respectively. In data set [3], the “solubility change mitosis (log2)” value is -0.0592. The figures for the thermal stability score in data set [4] (setting [5]) and in data set [4] (cell cycle stage: mitosis) were 1.85 and 2.85, respectively.
